Test results reported in paper PMC12260524, “Identification of a VPS29 isoform with restricted association to Retriever and Retromer accessory proteins through autoinhibition” (Proceedings of the National Academy of Sciences of the …, 2025).

Target: GST-VPS29C (human, UniProt F8VXU5 1-214)
Experiment: ITC; 300 μM peptide titrated into 10 μM GST-tagged VPS29C, 25 °C, 50 mM Tris-HCl pH 7.5, 200 mM NaCl, 2 mM β-mercaptoethanol; single-site model
Conditions: both partners purified

B1: VPS35L 16 to 38 (peptide)
peptide: EFASCRLEAVPLEFGDYHPLKPI
notes: also called VPS35L Pro-Leu motif containing peptide
- Kd: > 100 µM
